Target: ADAMTS-5 (UniProt Q9UNA0)
Assay: cell-based or functional assay

UniProt Q9UNA0, sequence (Q9UNA0 262-622 limits assumed): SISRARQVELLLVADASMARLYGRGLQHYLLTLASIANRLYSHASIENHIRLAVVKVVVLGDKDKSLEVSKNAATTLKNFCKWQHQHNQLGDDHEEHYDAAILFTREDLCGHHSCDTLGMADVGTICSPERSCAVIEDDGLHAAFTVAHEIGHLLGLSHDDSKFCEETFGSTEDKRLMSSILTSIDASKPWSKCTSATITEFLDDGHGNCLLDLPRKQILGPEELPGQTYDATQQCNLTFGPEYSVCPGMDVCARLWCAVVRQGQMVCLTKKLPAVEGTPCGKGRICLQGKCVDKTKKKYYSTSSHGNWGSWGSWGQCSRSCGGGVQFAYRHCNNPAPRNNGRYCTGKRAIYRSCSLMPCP

- IC50 for inhibiting 500 ng/ml of ADAMTS-5 (bovine cartilage explants, 2 days, 3-fold serial dilution of A2M): 7 µg/mL
- Maximum inhibition (bovine cartilage explants treated with protease, 2 days): 90%
Substance: purified A2M (alpha-2-macroglobulin) (from UniProt P01023 24-1474)

Reference: patent US20170246372A1
